Measured values from the RNAGym collection of RNA variant scans (doi:10.1073/pnas.2313332121).

B1: TPR t1 (parent)
chain: GACCAAUCUGCCCUCAGAGCUCGAGAACAUCUUCGGAUGCAGAGGAGGCAGGCUUCGGUGGCGCGAUAGCGCCAACGUCCUCAACCUCCAAUGCAUCCCACCACAUGAUGAUGCCUGAAGAGCCUUGGUUUUUUG

Variants of: B1
Assay: polymerase ribozyme fitness, log enrichment relative to wild type (log ratio); higher = more active; in vitro selection for triplet polymerase activity
How it was run: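 Each subunit of a heterodimeric triplet polymerase ribozyme was mutagenized into a library by PCR, transcribed, and subjected to one round of in vitro selection, run in triplicate. Libraries were annealed with a biotinylated primer, the partner subunit and triplets, incubated frozen at −7 °C, and extended constructs were gel-excised, captured on streptavidin beads and recovered by RT-PCR. Input and output libraries were sequenced on Illumina, keeping genotypes with ≥10 input reads and ≥1 read per output. Fitness is log base 2 of genotype enrichment divided by wild-type enrichment, from inverse-variance-weighted replicate averages.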
In the case of GACCAAUCUGCCCUCAGAGCUCGAGAUCAUCUUCGGAUGCAGAGGAGGCAGGCUUCGGUGGCGCGAUAGCGGCAACGACCUCAACCUCCAAUGCAUCCCACCACAUGAUGAUGCCUGAAGAGCCUUGGUUUUUUG, the “polymerase ribozyme fitness (log ratio)” value is reported as -3.94.
For GACCAAUCUGCCCUCAGAGCUCGAGAUCAUCUUCGGAUGCAGAGGAGGCAGGCUUCGGUGGCGCGAUAGCGCCAACGUCCUCAACCUCCAAUGCAUCCCACCACAUGAUGAUGCCUGAAGAGGCUUGGUUUUUUG, the “polymerase ribozyme fitness (log ratio)” value was -0.165.
In the case of GACCAAUCUGCCCUCAGAGCUCGAGAUCAUCUUCGGAUGCAGAGGAGGCAGGCUUCGGUGGCGCGAUAGCGCCAACGUCCUCAACCUCCAAUGCAUCCCACCACAUGAUGAUGCCUGAAGAGUCUUGGUUUUUUG, the “polymerase ribozyme fitness (log ratio)” value is reported as -1.65.
In the case of GACCAAUCUGCCCUCAGAGCUCGAGAUCAUCUUCGGAUGCAGAGGAUGCAGGCUUUGGUGGCGCGAUAGCGCCAACGUCCUCAACCUCCAAUGCAUCCCACCACAUGAUGAUGCCUGAAGAGCCUUGGUUUUUUG, the “polymerase ribozyme fitness (log ratio)” value is reported as -4.13.
With GACCAAUCUGCCCUCAGAGCUCGAGAUCAUCUUCGGAUGCAGAGGAGGCAGGCUUCGGUGGCGCGAUAGCGCCAACGUCCUCAACCUCUAAUGCAUCCCACCACAUGAUGAUGCCUGAAGAGCCUUGGUUUUUUG the “polymerase ribozyme fitness (log ratio)” value was -2.8.
For GACCAAUCUGCCCUCAGAGCUCGAGAUCAUCUUCGGAUGCAGAGGAGGCAGGCUUCGGUGGCGCGAUAGCGCCAACGUCCUCAACCUCCAAUGCAUCCCACCACAUGAUGAUGCCUGAAGAGCUUUGGUUUUUUG, the “polymerase ribozyme fitness (log ratio)” value was -0.949.
In the case of GACCAAUCUGCCCUCAGAGCUCGAGAUCAUCUUCGGAUGCAGAGGAGGCAGGCUUCGGUGGCGCGAUAUCGCCAACGUCCUCAACCUCCAAUGCAUCCCACCACAUGAUGAUGCCUGAAGAGCCUUGGUUUCUUG, the “polymerase ribozyme fitness (log ratio)” value is reported as -1.95.
In the case of GACCAAUCUGCCCUCAGAGCUCGAGAUCAUCUUCGGAUGCAGAGGAGGCAGGCUUCGGUGGCGCGAUAGCGCCAACGUCCUGAACCUCCAAUGCAUCCCACCACAAGAUGAUGCCUGAACAGCCUUGGUUUUUUG, the “polymerase ribozyme fitness (log ratio)” value is reported as -1.62.
For GACCAAUCUGCCCUCAGAGCUCGAGAUCAUCUUCGGAUGCAGAGGAGGCAGGCUUCGGUGCCGCGAUAGCGCCAACGUCCUCAACCUCCAAUGCAUCCCACCACAUGAUGAUGCCUGAAGAGCCUUGGUUUUUUG, the “polymerase ribozyme fitness (log ratio)” value was -5.97.
In the case of GACCAAUCUGCCCUCAGAGCUCGAGAUCAUCUUCGGAUGCAGAGGAGGCAGGCUUCGGUGGCGCGAUAGCGCCAAUGUCCUCAACCUCCAAUGCAUCCCUCCACAUGAUGAUGCCUGAACAGCCUUGGUUUUUUG, the “polymerase ribozyme fitness (log ratio)” value is reported as -3.8.
In the case of GACCAAUCUGCCCUCAGAGCUCGAGAUCAUCUUCGCAUGCAGAGGAGGCAGGCUUCGGUGGCGCGAUAGCGCCAACGUCCUCAACCUCCAAUGCAUCCCACCACAUGAUGAUGCCUGAAGAGCCUUGGUUUUUUG, the “polymerase ribozyme fitness (log ratio)” value is reported as -3.53.
In the case of GACCAAUCUGCCCUCAGAGCUCGAGAUCAUCUUCGGAUGCAGAGGAGGCAGGCUUCGGUGGCGCGAUAGCGGCAACGUCCUCAACCUCCAAUGCAUCCCACCACAUGAUGAUGCCUGAAGAGCCUUGGUUUUUUG, the “polymerase ribozyme fitness (log ratio)” value is reported as -3.21.
For GACCAAUCUGCCCUCAGAGCUCGAGAUCAUCUUCGGAUGCAGAGGAGGCAGGCUUCGGUGGCGCGAUAGCGCUAACGUCCUCAACCUCCAAUGCAUCCCACCACAUGAUGAUGCCUGAAGAGCCUUGGUUUUUUG, the “polymerase ribozyme fitness (log ratio)” value was -2.99.
In the case of GACCAAUCUGCCCUCAGAGCUCGAGAUCAUCUUCGGAUGCAGAGGAGGCAGGCUUCGGUGGCGCGAUAGCGCCAACGUCCUCAACCUCCAAUGGAUCCGACCAUAUGAUUAUGGCUGAAGAGCCUUGGUUUUUUG, the “polymerase ribozyme fitness (log ratio)” value is reported as -6.8.
For GACCAAUCUGCCCUCAGAGCUCGAGAUCAUCUUCGGAUGCAGAGGAGGCAGGCUUCGGUGGCGCGAUAGCGCCAACGUCCUCAACCUUCAAUGCAUCCCACAACAUGAUGAUGCCUGAAGAGCCUUGGUUUUUUG, the “polymerase ribozyme fitness (log ratio)” value was -5.16.
With GACCAAUCUGCCCUCAGAGCUCGAGAUCAUCUUCGGAUGCAGAGGAGGCAGGCUUCGGUGGCGCGAUAGCGCCAACGUCCUCAACCUCCAAUGGAUCCCACCACAUGAUGAUGCCUGAAGAGCCUUGGUUUUUUG the “polymerase ribozyme fitness (log ratio)” value was -5.02.
In the case of GACCAAUCUGCCCUCAGAGCUCGAGAUCAUCUUCGGAUGCAGAGGAGGCAGGCUUCGGUGGCGCGAUAGCGCCAACGUCCUCAACCUCCAAUGCAUACCACCACAUGAUGAUGCCUGAAGAGCCUUGGUUUUUUG, the “polymerase ribozyme fitness (log ratio)” value is reported as -7.67.
For GACCAAUCUGCCCUCAGAGCUCGAGAUCAUCUUCGGAUGCAGAGGAGGCAGGCUUCGGUAGCGCGAUAGCGCCAACGUCCUCAACCUCCAAUGCAUCCCACCACAUGAUGAUGCCUGAAGAGCCUUGGUUUUUUG, the “polymerase ribozyme fitness (log ratio)” value was -3.35.
For GACCAAUCUGCCCUCAGAGCUCGAGAUCAUCUUCGGAUGCAGAGGAGGCAGGCUUCGGUGGCGCGAUAGUGCCAACGUCCUCAACCUCCAAUGCAUCCCACCACAUGAUGAUGCCUGAAGAACCUUGGUUUUUUG, the “polymerase ribozyme fitness (log ratio)” value was -3.96.
With GACCAAUCUGCCCUCAGAGCUCGAGAUCAUCUUCGGAUGCAGAGGACACAGGCUUCGGUGGCGCGAUAGCGCCAACGCCCUCAACCUCCAAUGCGUCCCACCACAUGAUGAUGCCUGAAGAGCCUUGGUUUUUUG the “polymerase ribozyme fitness (log ratio)” value was -5.5.
With GACCAAUCUGCCCUCAGAGCUCGAGAUCAUCUUCGGAUGCAGAGGAGGCAGGCUUCGGUGGCGCGAUAGCGCCAACGUCCUCAACCUCCAAUGCAUUCCACCACAUGAUGAUGCCUGAAGAGCCUUGGUCUUUUG the “polymerase ribozyme fitness (log ratio)” value was -3.37.
